B1: Platelet-activating factor acetylhydrolase IB subunit beta (Homo sapiens), P43034 (parent)
chain: MVLSQRQRDELNRAIADYLRSNGYEEAYSVFKKEAELDVNEELDKKYAGLLEKKWTSVIRLQKKVMELESKLNEAKEEFTSGGPLGQKRDPKEWIPRPPEKYALSGHRSPVTRVIFHPVFSVMVSASEDATIKVWDYETGDFERTLKGHTDSVQDISFDHSGKLLASCSADMTIKLWDFQGFECIRTMHGHDHNVSSVAIMPNGDHIVSASRDKTIKMWEVQTGYCVKTFTGHREWVRMVRPNQDGTLIASCSNDQTVRVWVVATKECKAELREHEHVVECISWAPESSYSSISEATGSETKKSGKPGPFLLSGSRDKTIKMWDVSTGMCLMTLVGHDNWVRGVLFHSGGKFILSCADDKTLRVWDYKNKRCMKTLNAHEHFVTSLDFHKTAPYVVTGSVDQTVKVWECR
partner: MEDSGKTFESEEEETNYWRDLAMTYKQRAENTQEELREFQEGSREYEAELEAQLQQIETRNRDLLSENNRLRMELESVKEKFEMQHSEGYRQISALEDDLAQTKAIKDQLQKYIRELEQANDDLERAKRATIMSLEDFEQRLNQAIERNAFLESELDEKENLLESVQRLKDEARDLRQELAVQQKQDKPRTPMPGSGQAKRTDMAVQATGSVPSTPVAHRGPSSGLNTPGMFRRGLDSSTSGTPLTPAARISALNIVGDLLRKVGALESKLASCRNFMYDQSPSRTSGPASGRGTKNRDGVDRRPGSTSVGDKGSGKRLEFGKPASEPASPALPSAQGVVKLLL

Variants of: B1
Details: with nde1_mouse Nde1, Q9CZA6

Row | effect of a mutation on the interaction | Variant
1 | decreasing interaction | H149R
2 | decreasing interaction | S169P

— IntAct's records for PubMed 11163258
